Legend:
[1] = target: p53 (wild type) (UniProt P02340); test: cell_activity
[2] = target: p53as (alternatively spliced p53) (Mus musculus) (UniProt P02340); test: cell_activity
[3] = CAT reporter, human Saos-2 cells
[4] = luciferase reporter, mouse (10)1 cells

**Q.** “PG13 CAT reporter, 13 repeats of p53-binding site” was tested. Which activity [1, 3] did it give?
**A.** Its activity is 14 fold.

**Q.** What about the activity [2, 3] of the same substance?
**A.** The activity was 9 fold.

**Q.** Which activity [1, 4] does the source give for WAF-1 promoter (WWP-1 luciferase) here?
**A.** The activity was 15 fold.

**Q.** And the activity [2, 4]?
**A.** Its activity is 14 fold.
